To fix the notation:
T1: human amylin receptor (human calcitonin receptor + human RAMP3) (human) (UniProt P30988)
T1 sequence (looked up) 1: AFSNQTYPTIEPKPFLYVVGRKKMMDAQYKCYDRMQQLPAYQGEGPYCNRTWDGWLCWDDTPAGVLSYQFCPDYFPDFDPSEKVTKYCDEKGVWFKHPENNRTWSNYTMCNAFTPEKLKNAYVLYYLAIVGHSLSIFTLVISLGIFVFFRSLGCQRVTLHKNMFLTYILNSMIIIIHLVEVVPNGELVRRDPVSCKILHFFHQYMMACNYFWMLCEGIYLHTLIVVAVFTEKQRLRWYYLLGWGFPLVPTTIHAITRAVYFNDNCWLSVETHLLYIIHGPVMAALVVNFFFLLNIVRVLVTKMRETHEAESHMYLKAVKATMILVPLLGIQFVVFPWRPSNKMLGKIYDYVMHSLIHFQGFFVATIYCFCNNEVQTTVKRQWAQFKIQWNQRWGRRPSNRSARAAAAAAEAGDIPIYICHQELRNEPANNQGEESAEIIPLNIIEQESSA
T1 sequence (looked up) 2: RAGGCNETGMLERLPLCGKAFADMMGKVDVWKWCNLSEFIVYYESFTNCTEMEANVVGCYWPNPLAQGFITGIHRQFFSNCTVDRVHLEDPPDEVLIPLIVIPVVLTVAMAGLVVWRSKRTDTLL

B1: [N-terminal(C20 diacid-gGlu), -1E, 1A, 23Y, 30S, 31G]mimylin (peptide)
peptide: {C20 diacid-γGlu}-EAASELSTAALGRLSAELHELATYPRTETGSGSP-NH2
SMILES: CC(C)C[C@H](NC(=O)[C@H](C)NC(=O)[C@H](C)NC(=O)[C@@H](NC(=O)[C@H](CO)NC(=O)[C@H](CC(C)C)NC(=O)[C@H](CCC(=O)O)NC(=O)[C@H](CO)NC(=O)[C@H](C)NC(=O)[C@H](C)NC(=O)[C@H](CCC(=O)O)NC(=O)CC[C@H](NC(=O)CCCCCCCCCCCCCCCCCCC(=O)O)C(=O)O)[C@@H](C)O)C(=O)NCC(=O)N[C@@H](CCCNC(=N)N)C(=O)N[C@@H](CC(C)C)C(=O)N[C@@H](CO)C(=O)N[C@@H](C)C(=O)N[C@@H](CCC(=O)O)C(=O)N[C@@H](CC(C)C)C(=O)N[C@@H](Cc1c[nH]cn1)C(=O)N[C@@H](CCC(=O)O)C(=O)N[C@@H](CC(C)C)C(=O)N[C@@H](C)C(=O)N[C@H](C(=O)N[C@@H](Cc1ccc(O)cc1)C(=O)N1CCC[C@H]1C(=O)N[C@@H](CCCNC(=N)N)C(=O)N[C@H](C(=O)N[C@@H](CCC(=O)O)C(=O)N[C@H](C(=O)NCC(=O)N[C@@H](CO)C(=O)NCC(=O)N[C@@H](CO)C(=O)N1CCC[C@H]1C(N)=O)[C@@H](C)O)[C@@H](C)O)[C@@H](C)O
B2: [N-terminal(C18 diacid-gGlu), des1, 30S, 31G, 32P]mimylin (peptide)
peptide: {C18 diacid-γGlu}-ASELSTAALGRLSAELHELATLPRTETGSGPP-NH2
SMILES: CC(C)C[C@H](NC(=O)[C@H](C)NC(=O)[C@H](C)NC(=O)[C@@H](NC(=O)[C@H](CO)NC(=O)[C@H](CC(C)C)NC(=O)[C@H](CCC(=O)O)NC(=O)[C@H](CO)NC(=O)[C@H](C)NC(=O)CC[C@H](NC(=O)CCCCCCCCCCCCCCCCC(=O)O)C(=O)O)[C@@H](C)O)C(=O)NCC(=O)N[C@@H](CCCNC(=N)N)C(=O)N[C@@H](CC(C)C)C(=O)N[C@@H](CO)C(=O)N[C@@H](C)C(=O)N[C@@H](CCC(=O)O)C(=O)N[C@@H](CC(C)C)C(=O)N[C@@H](Cc1c[nH]cn1)C(=O)N[C@@H](CCC(=O)O)C(=O)N[C@@H](CC(C)C)C(=O)N[C@@H](C)C(=O)N[C@H](C(=O)N[C@@H](CC(C)C)C(=O)N1CCC[C@H]1C(=O)N[C@@H](CCCNC(=N)N)C(=O)N[C@H](C(=O)N[C@@H](CCC(=O)O)C(=O)N[C@H](C(=O)NCC(=O)N[C@@H](CO)C(=O)NCC(=O)N1CCC[C@H]1C(=O)N1CCC[C@H]1C(N)=O)[C@@H](C)O)[C@@H](C)O)[C@@H](C)O
B3: [N-terminal(C18 diacid), 5I, 9I, 10I, 20I]mimylin (peptide)
peptide: {C18 diacid}-EASEISTAIIGRLSAELHEIATLPRTETGPESP-NH2
SMILES: CC[C@H](C)[C@H](NC(=O)[C@H](C)NC(=O)[C@@H](NC(=O)[C@H](CO)NC(=O)[C@@H](NC(=O)[C@H](CCC(=O)O)NC(=O)[C@H](CO)NC(=O)[C@H](C)NC(=O)[C@H](CCC(=O)O)NC(=O)CCCCCCCCCCCCCCCCC(=O)O)[C@@H](C)CC)[C@@H](C)O)C(=O)N[C@H](C(=O)NCC(=O)N[C@@H](CCCNC(=N)N)C(=O)N[C@@H](CC(C)C)C(=O)N[C@@H](CO)C(=O)N[C@@H](C)C(=O)N[C@@H](CCC(=O)O)C(=O)N[C@@H](CC(C)C)C(=O)N[C@@H](Cc1c[nH]cn1)C(=O)N[C@@H](CCC(=O)O)C(=O)N[C@H](C(=O)N[C@@H](C)C(=O)N[C@H](C(=O)N[C@@H](CC(C)C)C(=O)N1CCC[C@H]1C(=O)N[C@@H](CCCNC(=N)N)C(=O)N[C@H](C(=O)N[C@@H](CCC(=O)O)C(=O)N[C@H](C(=O)NCC(=O)N1CCC[C@H]1C(=O)N[C@@H](CCC(=O)O)C(=O)N[C@@H](CO)C(=O)N1CCC[C@H]1C(N)=O)[C@@H](C)O)[C@@H](C)O)[C@@H](C)O)[C@@H](C)CC)[C@@H](C)CC
B4: [N-terminal(C18 diacid-gGlu), des1, 4Q, 30S, 31G]mimylin (peptide)
peptide: {C18 diacid-γGlu}-ASQLSTAALGRLSAELHELATLPRTETGSGSP-NH2
SMILES: CC(C)C[C@H](NC(=O)[C@H](C)NC(=O)[C@H](C)NC(=O)[C@@H](NC(=O)[C@H](CO)NC(=O)[C@H](CC(C)C)NC(=O)[C@H](CCC(N)=O)NC(=O)[C@H](CO)NC(=O)[C@H](C)NC(=O)CC[C@H](NC(=O)CCCCCCCCCCCCCCCCC(=O)O)C(=O)O)[C@@H](C)O)C(=O)NCC(=O)N[C@@H](CCCNC(=N)N)C(=O)N[C@@H](CC(C)C)C(=O)N[C@@H](CO)C(=O)N[C@@H](C)C(=O)N[C@@H](CCC(=O)O)C(=O)N[C@@H](CC(C)C)C(=O)N[C@@H](Cc1c[nH]cn1)C(=O)N[C@@H](CCC(=O)O)C(=O)N[C@@H](CC(C)C)C(=O)N[C@@H](C)C(=O)N[C@H](C(=O)N[C@@H](CC(C)C)C(=O)N1CCC[C@H]1C(=O)N[C@@H](CCCNC(=N)N)C(=O)N[C@H](C(=O)N[C@@H](CCC(=O)O)C(=O)N[C@H](C(=O)NCC(=O)N[C@@H](CO)C(=O)NCC(=O)N[C@@H](CO)C(=O)N1CCC[C@H]1C(N)=O)[C@@H](C)O)[C@@H](C)O)[C@@H](C)O
B5: [N-terminal(C18 diacid-gGlu), des1, 9V, 30S, 31G]mimylin (peptide)
peptide: {C18 diacid-γGlu}-ASELSTAVLGRLSAELHELATLPRTETGSGSP-NH2
SMILES: CC(C)C[C@H](NC(=O)[C@H](CCC(=O)O)NC(=O)[C@H](Cc1c[nH]cn1)NC(=O)[C@H](CC(C)C)NC(=O)[C@H](CCC(=O)O)NC(=O)[C@H](C)NC(=O)[C@H](CO)NC(=O)[C@H](CC(C)C)NC(=O)[C@H](CCCNC(=N)N)NC(=O)CNC(=O)[C@H](CC(C)C)NC(=O)[C@@H](NC(=O)[C@H](C)NC(=O)[C@@H](NC(=O)[C@H](CO)NC(=O)[C@H](CC(C)C)NC(=O)[C@H](CCC(=O)O)NC(=O)[C@H](CO)NC(=O)[C@H](C)NC(=O)CC[C@H](NC(=O)CCCCCCCCCCCCCCCCC(=O)O)C(=O)O)[C@@H](C)O)C(C)C)C(=O)N[C@@H](C)C(=O)N[C@H](C(=O)N[C@@H](CC(C)C)C(=O)N1CCC[C@H]1C(=O)N[C@@H](CCCNC(=N)N)C(=O)N[C@H](C(=O)N[C@@H](CCC(=O)O)C(=O)N[C@H](C(=O)NCC(=O)N[C@@H](CO)C(=O)NCC(=O)N[C@@H](CO)C(=O)N1CCC[C@H]1C(N)=O)[C@@H](C)O)[C@@H](C)O)[C@@H](C)O
B6: [N-terminal(C20 diacid-gGlu), des1, 30T, 31G, 32T]mimylin (peptide)
peptide: {C20 diacid-γGlu}-ASELSTAALGRLSAELHELATLPRTETGTGTP-NH2
SMILES: CC(C)C[C@H](NC(=O)[C@H](C)NC(=O)[C@H](C)NC(=O)[C@@H](NC(=O)[C@H](CO)NC(=O)[C@H](CC(C)C)NC(=O)[C@H](CCC(=O)O)NC(=O)[C@H](CO)NC(=O)[C@H](C)NC(=O)CC[C@H](NC(=O)CCCCCCCCCCCCCCCCCCC(=O)O)C(=O)O)[C@@H](C)O)C(=O)NCC(=O)N[C@@H](CCCNC(=N)N)C(=O)N[C@@H](CC(C)C)C(=O)N[C@@H](CO)C(=O)N[C@@H](C)C(=O)N[C@@H](CCC(=O)O)C(=O)N[C@@H](CC(C)C)C(=O)N[C@@H](Cc1c[nH]cn1)C(=O)N[C@@H](CCC(=O)O)C(=O)N[C@@H](CC(C)C)C(=O)N[C@@H](C)C(=O)N[C@H](C(=O)N[C@@H](CC(C)C)C(=O)N1CCC[C@H]1C(=O)N[C@@H](CCCNC(=N)N)C(=O)N[C@H](C(=O)N[C@@H](CCC(=O)O)C(=O)N[C@H](C(=O)NCC(=O)N[C@H](C(=O)NCC(=O)N[C@H](C(=O)N1CCC[C@H]1C(N)=O)[C@@H](C)O)[C@@H](C)O)[C@@H](C)O)[C@@H](C)O)[C@@H](C)O

By IC50 is commonly meant the concentration that inhibits the measured activity by half.

Numbered stars: 1 amine (or outer) side, 2 acyl side, 3 side chain; on linkers, the order of the positions; unused ones are H or OH. * marks the point of attachment. C20 diacid = O=C(O)CCCCCCCCCCCCCCCCCCC(=O)*; C18 diacid = O=C(O)CCCCCCCCCCCCCCCCC(=O)*; γGlu = O=C(O)[C@H](CCC(=O)[*:2])N[*:1]

The assay has as its target T1, human amylin receptor (human calcitonin receptor + human RAMP3) (human). Description: whole-cell competition vs 125I-rat amylin (Assay Va).
{C20 diacid-γGlu}-ASGLSTAALGRLSAELHELATYPRTETGSGSP-NH2 [[N-terminal(C20 diacid-gGlu), des1, 4G, 23Y, 30S, 31G]mimylin]: the IC50 is 111 pM.
On to B1, for which the IC50 worked out at 1920 pM.
Turning to B2, the IC50 was found to be 22000 pM.
On to B3, for which the IC50 worked out at 998 pM.
B4: the IC50 was 587 pM.
Regarding B5, the IC50 amounted to 764 pM.
Then B6, with 606 pM.

The record behind these values is patent US20160272683A1 (Novo Nordisk, published 2016).
